The target of assay [1] is T1, recombinant human Fc-tagged PSA (Homo sapiens, UniProt P07288).
T1 construct: prostate-specific antigen (PSA), human; also called prostate-specific antigen; recombinant Fc-tagged PSA
In words: ELISA; enzyme immunoassay: recombinant human Fc-tagged PSA coated on the plate (0.1 M NaHCO3 pH 8.6, overnight at 4 C), blocked with 3% BSA in PBS; 250 ng cotinine-conjugated scFv-C kappa fusion protein in 50 ul, 1 h at 37 C; HRP-conjugated anti-cotinine IgG1 or HRP-conjugated anti-human C kappa antibody, TMB, optical density at 450 nm. Particulars: both partners purified. A general note: An ELISA detects its analyte on a solid surface through an enzyme-linked reagent.

Assay [2] deals with T1, recombinant human Fc-tagged PSA. In words: ELISA; phage enzyme immunoassay: recombinant human Fc-tagged PSA coated on the microtiter plate (5 ug/ml in PBS, overnight at 4 C), blocked with 3% BSA in PBS; scFv-displaying phages in culture supernatant; HRP-conjugated anti-M13 antibody, ABTS, optical density at 405 nm. Particulars: one partner purified.

T1 sequence (P07288 18-261): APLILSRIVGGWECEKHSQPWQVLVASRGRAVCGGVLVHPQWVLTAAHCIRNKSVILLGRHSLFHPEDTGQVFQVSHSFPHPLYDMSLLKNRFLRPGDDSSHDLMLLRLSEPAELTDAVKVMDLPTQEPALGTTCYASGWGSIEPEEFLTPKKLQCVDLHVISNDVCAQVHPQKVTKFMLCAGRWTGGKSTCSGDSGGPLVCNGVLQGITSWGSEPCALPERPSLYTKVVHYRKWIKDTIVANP

B1: charge-variant artificial H13 cysteine-mutant scFv RCK, scFv-C kappa fusion protein cotinine conjugate (scFv, V domains shown)
VH: AVTLDESGGGLRCKGGALSLVCKASGFTFSSYDMGWVRQAPGKGLEWVAGIDDDGSYPNYGPAVKGRATISRDNGQSTVRLQLNNLRAEDTGTYFCAKGIESDSDGYMTAEEIDAWGHGTEVIVSS
VL: ALTQPSSVSANLGGTVKITCSGGYSYYGWYQQKSPGSAPVTVIYESTKRPSNIPSRFSGSTSGSTGTLTITGVQADDAAVYYCGSWDSSSVGIFGAGTTLTVL
notes: VL as in m2; VH as in m6 (GenBank KP764767 with cysteine at Kabat H13), the flanking residues of H13 changed from QCP to RCK; source: HEK293F, transfected, purified (KappaSelect); reduced with TCEP-HCl, treated with dehydroascorbic acid, conjugated with GMBS-coupled cotinine
As for B1, the binding result in assay [1] was “binds”.

B2: charge-variant artificial H13 cysteine-mutant scFv ECD, scFv-C kappa fusion protein cotinine conjugate (scFv, V domains shown)
VH: AVTLDESGGGLECDGGALSLVCKASGFTFSSYDMGWVRQAPGKGLEWVAGIDDDGSYPNYGPAVKGRATISRDNGQSTVRLQLNNLRAEDTGTYFCAKGIESDSDGYMTAEEIDAWGHGTEVIVSS
VL: ALTQPSSVSANLGGTVKITCSGGYSYYGWYQQKSPGSAPVTVIYESTKRPSNIPSRFSGSTSGSTGTLTITGVQADDAAVYYCGSWDSSSVGIFGAGTTLTVL
notes: VL as in m2; VH as in m6 (GenBank KP764767 with cysteine at Kabat H13), the flanking residues of H13 changed from QCP to ECD; source: HEK293F, transfected, purified (KappaSelect); reduced with TCEP-HCl, treated with dehydroascorbic acid, conjugated with GMBS-coupled cotinine
On to B2, for which the binding result in assay [1] is “binds”.

B3: artificial cysteine-mutant scFv L6, scFv-pIII fusion protein displayed on phage (scFv, V domains shown)
VH: AVTLDESGGGLQTPGGALSLVCKASGFTFSSYDMGWVRQAPGKGLEWVAGIDDDGSYPNYGPAVKGRATISRDNGQSTVRLQLNNLRAEDTGTYFCAKGIESDSDGYMTAEEIDAWGHGTEVIVSS
VL: ALTCPSSVSANLGGTVKITCSGGYSYYGWYQQKSPGSAPVTVIYESTKRPSNIPSRFSGSTSGSTGTLTITGVQADDAAVYYCGSWDSSSVGIFGAGTTLTVL
notes: VH as in m2; Order VL-linker-VH worked out as for m2
In the case of B3, in assay [2], the binding result is listed as “binds”.

B4: charge-variant artificial H13 cysteine-mutant scFv ECE, scFv-C kappa fusion protein cotinine conjugate (scFv, V domains shown)
VH: AVTLDESGGGLECEGGALSLVCKASGFTFSSYDMGWVRQAPGKGLEWVAGIDDDGSYPNYGPAVKGRATISRDNGQSTVRLQLNNLRAEDTGTYFCAKGIESDSDGYMTAEEIDAWGHGTEVIVSS
VL: ALTQPSSVSANLGGTVKITCSGGYSYYGWYQQKSPGSAPVTVIYESTKRPSNIPSRFSGSTSGSTGTLTITGVQADDAAVYYCGSWDSSSVGIFGAGTTLTVL
notes: VL as in m2; VH as in m6 (GenBank KP764767 with cysteine at Kabat H13), the flanking residues of H13 changed from QCP to ECE; source: HEK293F, transfected, purified (KappaSelect); reduced with TCEP-HCl, treated with dehydroascorbic acid, conjugated with GMBS-coupled cotinine
Turning to B4, in assay [1], the binding result is “binds”.

B5: artificial cysteine-mutant scFv L7, scFv-pIII fusion protein displayed on phage (scFv, V domains shown)
VH: AVTLDESGGGLQTPGGALSLVCKASGFTFSSYDMGWVRQAPGKGLEWVAGIDDDGSYPNYGPAVKGRATISRDNGQSTVRLQLNNLRAEDTGTYFCAKGIESDSDGYMTAEEIDAWGHGTEVIVSS
VL: ALTQCSSVSANLGGTVKITCSGGYSYYGWYQQKSPGSAPVTVIYESTKRPSNIPSRFSGSTSGSTGTLTITGVQADDAAVYYCGSWDSSSVGIFGAGTTLTVL
notes: as for B3
On to B5, for which the binding result in assay [2] is reported as “binds”.

B6: charge-variant artificial H13 cysteine-mutant scFv DCE, scFv-C kappa fusion protein cotinine conjugate (scFv, V domains shown)
VH: AVTLDESGGGLDCEGGALSLVCKASGFTFSSYDMGWVRQAPGKGLEWVAGIDDDGSYPNYGPAVKGRATISRDNGQSTVRLQLNNLRAEDTGTYFCAKGIESDSDGYMTAEEIDAWGHGTEVIVSS
VL: ALTQPSSVSANLGGTVKITCSGGYSYYGWYQQKSPGSAPVTVIYESTKRPSNIPSRFSGSTSGSTGTLTITGVQADDAAVYYCGSWDSSSVGIFGAGTTLTVL
notes: VL as in m2; VH as in m6 (GenBank KP764767 with cysteine at Kabat H13), the flanking residues of H13 changed from QCP to DCE; also called DEC (as printed once); source: HEK293F, transfected, purified (KappaSelect); reduced with TCEP-HCl, treated with dehydroascorbic acid, conjugated with GMBS-coupled cotinine
B6: in assay [1], the binding result is given as “binds”.

B7: artificial cysteine-mutant scFv H13 (QCP), scFv-pIII fusion protein displayed on phage (scFv, V domains shown)
VH: AVTLDESGGGLQCPGGALSLVCKASGFTFSSYDMGWVRQAPGKGLEWVAGIDDDGSYPNYGPAVKGRATISRDNGQSTVRLQLNNLRAEDTGTYFCAKGIESDSDGYMTAEEIDAWGHGTEVIVSS
VL: ALTQPSSVSANLGGTVKITCSGGYSYYGWYQQKSPGSAPVTVIYESTKRPSNIPSRFSGSTSGSTGTLTITGVQADDAAVYYCGSWDSSSVGIFGAGTTLTVL
notes: VL as in m2; Order VL-linker-VH worked out as for m2
In the case of B7, the binding result in assay [2] is recorded as “binds”.

B8: artificial cysteine-mutant scFv L5, scFv-pIII fusion protein displayed on phage (scFv, V domains shown)
VH: AVTLDESGGGLQTPGGALSLVCKASGFTFSSYDMGWVRQAPGKGLEWVAGIDDDGSYPNYGPAVKGRATISRDNGQSTVRLQLNNLRAEDTGTYFCAKGIESDSDGYMTAEEIDAWGHGTEVIVSS
VL: ALCQPSSVSANLGGTVKITCSGGYSYYGWYQQKSPGSAPVTVIYESTKRPSNIPSRFSGSTSGSTGTLTITGVQADDAAVYYCGSWDSSSVGIFGAGTTLTVL
notes: as for B3
B8: the binding result in assay [2] is given as “binds”.

B9: artificial cysteine-mutant scFv H16, scFv-pIII fusion protein displayed on phage (scFv, V domains shown)
VH: AVTLDESGGGLQTPGCALSLVCKASGFTFSSYDMGWVRQAPGKGLEWVAGIDDDGSYPNYGPAVKGRATISRDNGQSTVRLQLNNLRAEDTGTYFCAKGIESDSDGYMTAEEIDAWGHGTEVIVSS
VL: ALTQPSSVSANLGGTVKITCSGGYSYYGWYQQKSPGSAPVTVIYESTKRPSNIPSRFSGSTSGSTGTLTITGVQADDAAVYYCGSWDSSSVGIFGAGTTLTVL
notes: as for B7
Take B9: the binding result in assay [2] is “binds”.

B10: artificial cysteine-mutant scFv L5, scFv-C kappa fusion protein cotinine conjugate (scFv, V domains shown)
VH: AVTLDESGGGLQTPGGALSLVCKASGFTFSSYDMGWVRQAPGKGLEWVAGIDDDGSYPNYGPAVKGRATISRDNGQSTVRLQLNNLRAEDTGTYFCAKGIESDSDGYMTAEEIDAWGHGTEVIVSS
VL: ALCQPSSVSANLGGTVKITCSGGYSYYGWYQQKSPGSAPVTVIYESTKRPSNIPSRFSGSTSGSTGTLTITGVQADDAAVYYCGSWDSSSVGIFGAGTTLTVL
notes: VL as in m3: GenBank KP764766 with Kabat residue L5 replaced with cysteine; VH as in m2; that it was a cotinine conjugate of the scFv-C kappa protein is inferred from that detection; also called L5 mutant scFv; source: HEK293F, transfected, purified (KappaSelect); conjugated with GMBS-coupled cotinine
For the molecule B10, the binding result in assay [1] was “binds”.

The values above are taken from publication PMC4713166, “Chicken scFvs with an Artificial Cysteine for Site-Directed Conjugation” (PLoS ONE, 2016).
